This note sets out measurements from patent publication US20240207377A1.

The experiment has as its target Recombinant Human TACE/ADAM17 (930-ADB, R&D Systems) (human) (UniProt P78536). The experiment in a line: cell-based or functional assay.
Sequence of UniProt P78536 (P78536 215-671 limits assumed): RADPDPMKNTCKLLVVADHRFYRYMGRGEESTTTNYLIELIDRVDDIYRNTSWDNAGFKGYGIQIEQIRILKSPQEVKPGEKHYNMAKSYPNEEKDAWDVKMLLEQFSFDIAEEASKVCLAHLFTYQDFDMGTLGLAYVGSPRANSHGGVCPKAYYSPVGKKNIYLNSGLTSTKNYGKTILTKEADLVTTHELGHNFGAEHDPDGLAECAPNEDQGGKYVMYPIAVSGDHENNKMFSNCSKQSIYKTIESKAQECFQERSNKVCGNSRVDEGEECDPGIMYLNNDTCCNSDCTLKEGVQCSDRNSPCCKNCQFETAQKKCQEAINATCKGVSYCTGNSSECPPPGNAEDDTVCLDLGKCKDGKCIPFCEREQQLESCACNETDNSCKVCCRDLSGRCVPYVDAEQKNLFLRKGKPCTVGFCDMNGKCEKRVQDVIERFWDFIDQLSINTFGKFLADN

With “human alpha-1-antitrypsin (AAT) (Sigma Aldrich, batch A6150) (from UniProt P01009 25-418)”, the TACE activity in a cell-free assay (fluorogenic peptide substrate Mca-PLAQAV-Dpa-RSSSR-NH2), IC50 was determined as 15.3 µM.
